In the supplement of paper PMC10126150:
± gives the standard deviation of the averaged measurements.

Tested on: ATP
Assay: switch fluorescence ratio, 500 uM ATP over buffer (Cy3 cluster intensity, sum of 5 cycles each) (fold (ratio)); higher = stronger signal-on switching upon ATP binding; sequences stand for … in TCGTCGGCAGCGTCAGATGTGTATAAGAGACAGTTTTTTTTTTTTTTTTTTTTTTTTT…TC
Conditions: aptamer strand: ATP DNA aptamer (quencher-CACCTGGGGGAGTATTGCGGAGGAAGG + anchor), 100 nM annealed; ATP concentration: 500 uM
How it was run: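 The fluorescence ratio divides summed target-cycle Cy3 intensity by summed buffer-cycle Cy3 intensity for each cluster and is averaged per switch-domain sequence. Cy3-labelled switching-strand clusters on a modified Illumina MiSeq flow-cell were annealed to 100 nM quencher-labelled ATP aptamer, then imaged in selection buffer and again after 15 min with 500 uM ATP at 22 °C. Five such cycles were run, with NaOH stripping and re-annealing between them, and clusters outside 100-1000 RFU were excluded.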
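Also: ATP exposure 15 min at 22 °C before imaging.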

Sequence | switch fluorescence ratio
ATGCGCTGGG | 1.01 ± 0.021
TGGTGTTTTT | 0.992 ± 0.027
TTATTTTATT | 0.998 ± 0.021
GTTTCTTGGG | 0.995 ± 0.056
CGGAAAAGGG | 0.993 ± 0.064
ATTATTTTGG | 1.01 ± 0.018
TATATTTGTC | 1.04 ± 0.032
GGGTACGGAA | 1.106 ± 0.01
TGATGTTACG | 0.9871 ± 0.0046
TCCATGTGTT | 1.01 ± 0.037
GGGTCAGGTT | 1.01 ± 0.029
AGATGGGAAT | 1.04 ± 0.0028
AAGGAAGTGG | 0.99 ± 0.022
CTTTATTTGC | 1.05 ± 0.021
GTTAACGGGT | 0.997 ± 0.02
TGCTTCTCGA | 0.991 ± 0.031
TTGAATGGTT | 0.994 ± 0.021
AATAATAGGC | 0.97 ± 0.012
TAAGTTGTGC | 1.02 ± 0.15
AGGAATTACG | 1.05 ± 0.041
TTTGGCAGTC | 1.1 ± 0.13
TGATGCAGAG | 1.02 ± 0.018

Sequence | switch fluorescence ratio
TGCTGGGGTC | 0.977 ± 0.016
TATTTTGCGC | 1.02 ± 0.026
TGCGAGGCTT | 1.022 ± 0.0058
GTTGAATGGG | 0.977 ± 0.011
AGCGTTTCGC | 0.996 ± 0.013
TTTTTTCTTC | 1.04 ± 0.011
AGTAGTTTTG | 0.98 ± 0.014
CAATTACGCA | 1.186 ± 0.00065
TTTTTGGTGC | 1.04 ± 0.03
GTGGGCGGTC | 0.995 ± 0.057
CAATTAGGTC | 0.994 ± 0.024
CGGTCTAGGG | 0.995 ± 0.019
TTTCCATTTT | 1.02 ± 0.074
GCTACTGGAT | 1.007 ± 0.0058
GTAGTAGGGC | 1.06 ± 0.016
ACTTGTAGAT | 1.009 ± 0.0059
CGACGGTGAA | 1.09 ± 0.022
TGTTTGAAGA | 1 ± 0.028
AGGGGCTCCG | 1.02 ± 0.036
ACGTGGTGTT | 1.003 ± 0.0035
AATTAAGGTT | 1.04 ± 0.03
CTTGTTGCCG | 1.01 ± 0.013

Sequence | switch fluorescence ratio
TGTGTCTGTT | 0.9933 ± 0.0025
CTCTACTCAA | 1.37 ± 0.031
AGTGCGTTTA | 1 ± 0.014
TACGTGGGGC | 1.01 ± 0.0079
GCTCTAGATG | 1.04 ± 0.0076
CGGTGACGTT | 1.01 ± 0.028
TAGGGCACGA | 0.97 ± 0.08
GCAAATGAGT | 1.003 ± 0.0082
CAAGAGTGC | 1.025 ± 0.0091
CAAGTGAGAA | 1.02 ± 0.049
TCATAATAGC | 0.977 ± 0.028
TGTAATACGT | 1.17 ± 0.019
TCGTACTGTG | 1.02 ± 0.1
TACAGGGAGT | 1.06 ± 0.047
TGGACCCGAT | 0.978 ± 0.011
AGGTAGATGG | 0.995 ± 0.0096
ATTCATTCGG | 0.992 ± 0.026
AGGATTATGT | 1.01 ± 0.035
TGGGTCATGA | 1.03 ± 0.034
TCAGGTTTTT | 1.13 ± 0.22
TCGGACATGG | 1.015 ± 0.0082
TTTTGGAGAG | 1.01 ± 0.016

Sequence | switch fluorescence ratio
ACTTGCTTGT | 1.02 ± 0.013
GTTTTGTCAT | 1.01 ± 0.035
TTGGAGGGGC | 1 ± 0.071
CTTTGAAAA | 1.02 ± 0.02
CGGTGGTTGG | 1 ± 0.029
ATGAAGTGAG | 1.01 ± 0.027
GTGGACAACG | 0.9924 ± 0.0099
GGGACGCAGG | 1.015 ± 0.008
GGGCAAGGGT | 0.977 ± 0.029
AGAAACGGAA | 1.27 ± 0.35
TAGATATGAG | 1.009 ± 0.0012
TCTTTATAAA | 1.02 ± 0.038
TTTTTGTTCC | 1.08 ± 0.1
AGTGGGTAAG | 0.9869 ± 0.0085
ATTTGGGGGC | 0.973 ± 0.057
GTGTAAATCT | 1.036 ± 0.0046
TGGGGGCTAG | 0.997 ± 0.037
GGAAGGAGTC | 0.991 ± 0.019
TCACCTTGTT | 1.03 ± 0.037
